Measured values: article PMC5457915, “Real-time analysis of the binding of fluorescent VEGF165a to VEGFR2 in living cells: Effect of receptor tyrosine kinase inhibitors and fate of internalized agonist-receptor complexes” (Biochemical Pharmacology, 2017)

Target: VEGFR2 (Homo sapiens, UniProt P35968)
Assay: NFAT luciferase reporter gene assay in HEK293T ReLuc2P cells stably expressing wild-type VEGFR2
Format: cell-based
Set-up: in cells expressing the wild-type VEGFR2 receptor; host or cells: HEK293T ReLuc2P suspension cell line
Conditions: cells expressing the wild-type VEGFR2 receptor; n = 4
Protocol: NFAT luciferase reporter gene activity was monitored in a HEK293T ReLuc2P (Promega Corporation, USA) suspension cell line stably expressing VEGFR2 as described previously.
NFAT reporter genes: All data obtained from the NFAT luciferase reporter gene assays were normalised to 10 nM VEGF165a responses and fitted with non linear regression using the equation as described previously.

Chain of VEGFR2 (P35968 20-1356): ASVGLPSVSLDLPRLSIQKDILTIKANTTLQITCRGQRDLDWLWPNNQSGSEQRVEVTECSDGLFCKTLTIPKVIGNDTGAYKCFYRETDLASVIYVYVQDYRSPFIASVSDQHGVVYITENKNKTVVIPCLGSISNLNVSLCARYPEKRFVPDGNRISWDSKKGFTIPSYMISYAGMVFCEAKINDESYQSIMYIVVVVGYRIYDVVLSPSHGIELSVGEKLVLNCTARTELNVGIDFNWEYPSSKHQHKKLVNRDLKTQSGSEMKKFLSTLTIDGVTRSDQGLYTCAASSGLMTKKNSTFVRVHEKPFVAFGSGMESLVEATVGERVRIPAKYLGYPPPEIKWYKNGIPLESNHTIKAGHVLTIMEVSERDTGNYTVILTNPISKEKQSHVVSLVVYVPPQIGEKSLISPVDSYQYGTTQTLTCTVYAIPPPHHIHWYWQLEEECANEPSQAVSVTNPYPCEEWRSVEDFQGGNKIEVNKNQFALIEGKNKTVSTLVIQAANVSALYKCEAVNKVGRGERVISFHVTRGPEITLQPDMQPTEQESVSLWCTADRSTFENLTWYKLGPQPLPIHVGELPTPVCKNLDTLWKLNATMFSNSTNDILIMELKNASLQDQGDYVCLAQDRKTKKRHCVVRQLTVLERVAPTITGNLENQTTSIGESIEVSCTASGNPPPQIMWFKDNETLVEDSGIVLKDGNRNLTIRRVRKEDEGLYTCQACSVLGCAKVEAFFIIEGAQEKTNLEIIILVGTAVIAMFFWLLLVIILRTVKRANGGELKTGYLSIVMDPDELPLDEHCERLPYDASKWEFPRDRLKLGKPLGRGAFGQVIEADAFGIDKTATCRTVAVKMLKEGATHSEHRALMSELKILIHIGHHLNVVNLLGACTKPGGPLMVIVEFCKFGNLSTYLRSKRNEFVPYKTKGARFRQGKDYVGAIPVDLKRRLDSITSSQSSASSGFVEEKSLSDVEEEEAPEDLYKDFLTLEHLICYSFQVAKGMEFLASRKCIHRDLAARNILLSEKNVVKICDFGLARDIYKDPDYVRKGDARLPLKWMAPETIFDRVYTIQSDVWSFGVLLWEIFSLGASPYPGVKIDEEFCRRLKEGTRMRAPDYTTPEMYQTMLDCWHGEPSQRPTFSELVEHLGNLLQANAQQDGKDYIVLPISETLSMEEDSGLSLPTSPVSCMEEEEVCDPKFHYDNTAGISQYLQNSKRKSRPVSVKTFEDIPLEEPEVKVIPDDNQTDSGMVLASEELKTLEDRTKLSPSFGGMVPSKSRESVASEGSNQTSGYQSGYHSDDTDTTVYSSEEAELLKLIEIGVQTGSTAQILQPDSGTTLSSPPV

pEC50, NFAT reporter gene agonist activity: 9.72 ± 0.09
B1: non-fluorescent VEGF165a: unlabeled VEGF165a purified in an identical manner to VEGF165a-TMR, with modified N-terminus (protein)
chain: CDNAPMAEGGGQNHHEVVKFMDVYQRSYCHPIETLVDIFQEYPDEIEYIFKPSCVPLMRCGGCCNDEGLECVPTEESNITMQIMRIKPHQGQHIGEMSFLQHNKCECRPKKDRARQENPCGPCSERRKHLFVQDPQTCKCSCKNTDSRCKARQLELNERTCRCDKPRR
modifications: free N-terminal Cys (unlabeled); HEK293T-expressed, glycosylated; disulfide-linked antiparallel homodimer
